Like-named read-outs stand apart in the source and are kept apart here.
B1: 1035753 (antibody, V domains shown)
VH: EVQLQQSGAELVRPGALVKLSCKASGFNIKDYYMHWVKQRPEQGLEWIGWIDPENGNTIYDPKFLGKASITADTSSNTAYLQLSSLTSEDTAVYYCARWYYYAMDSWGQGTSVTVSS
VL: DIQMTQTTSSLSASLGDRVTISCSASQGISNYLNWYQQKPDGTVKLLIYYTSSLHSGVPSRFSGSGSGTDYSLTISNLEPEDIATYYCQQYSKLPFTFGGGTNLEMK
B2: 1035740 (antibody, V domains shown)
VH: EVLLQQSGPELVKPGASVKIPCKASGYTFTDYNMDWVKQSHGKSLEWIGDINPNNGFTIYNQKFKGKATLTVDKSSSTAYMELRSLTSEDTAVYYCAREGYGNYFDYWGQGTTLTVSS
VL: DVLLTQSPAILSVSPGERVSFSCRASQSIGTSLHWYQQRTNGSPRLLIKYVSESISGIPSRFSGSGSGTDFTLSINSVESEDIADYYCQQSSSWPTTFGAGTKLELK
B3: 1035762 (antibody, V domains shown)
VH: EVQLQQSGPELVKPGASVKISCKTSGYTFTEYTMHWVKQSHGKSLEWIGGINPNNGDTGYNQKFKGKATLTVDKSSSTAYMELRSLTFEDSAVYYCARDGYPLYYAMDYWGQGTSVTVSS
VL: DIQMTQSPSSLSASLGERVSLTCRASQEISGYLCWLQQKPDGTIKRLIYAASTLDSAVPKRFSGSRSGSDYSLTISSLESEDFADFYCLQYASYPWTFGGGTKLEIK

Tests used:
[1] = target: T1, SARS-CoV spike RBD (R306-F527), C-terminal 6-His (SARS-CoV, UniProt P59594 306-527); experiment: flow cytometry, blocking of binding to hACE-2 cells
[2] = target: T2, recombinant monomeric SARS-CoV-1 S1 protein (SARS-CoV-1, UniProt P59594 14-667); experiment: as above
[3] = target: T3, recombinant monomeric SARS-CoV-2 S1 protein, his-tagged (SARS-CoV-2, UniProt P0DTC2 16-681); experiment: as above
T3 construct: domain: S1

[4] = target: T3, recombinant monomeric SARS-CoV-2 S1 …; experiment: as above; remark: listed apart in the source
[5] = target: T4, recombinant his-tagged homotrimeric SARS-CoV-2 spike protein (SARS-CoV-2, UniProt P0DTC2 16-1211); experiment: as above
[6] = target: T1, SARS-CoV spike RBD (R306-F527), …; experiment: as above; remark: listed apart in the source
[7] = target: T2, recombinant monomeric SARS-CoV-1 S1 …; experiment: as above; remark: listed apart in the source
[8] = target: T2, recombinant monomeric SARS-CoV-1 S1 …; experiment: antigen-down ELISA, coated SARS-CoV-1 S1 titrated, Ab 1 µg/mL
[9] = target: T1, SARS-CoV spike RBD (R306-F527), …; experiment: antigen-down ELISA, coated SARS-CoV-1 S1 RBD titrated, Ab 1 µg/mL
[10] = target: T4, recombinant his-tagged homotrimeric …; experiment: flow cytometry, blocking of binding to hACE-2 cells; remark: listed apart in the source
[11] = target: T5, BSA (bovine, UniProt P02769); experiment: dipstick, adsorbed protein spots, Ab 10 µg/mL, GAM-AuNP
T5 construct: also called bovine serum albumin
T5 sequence (P02769 25-607 limits assumed): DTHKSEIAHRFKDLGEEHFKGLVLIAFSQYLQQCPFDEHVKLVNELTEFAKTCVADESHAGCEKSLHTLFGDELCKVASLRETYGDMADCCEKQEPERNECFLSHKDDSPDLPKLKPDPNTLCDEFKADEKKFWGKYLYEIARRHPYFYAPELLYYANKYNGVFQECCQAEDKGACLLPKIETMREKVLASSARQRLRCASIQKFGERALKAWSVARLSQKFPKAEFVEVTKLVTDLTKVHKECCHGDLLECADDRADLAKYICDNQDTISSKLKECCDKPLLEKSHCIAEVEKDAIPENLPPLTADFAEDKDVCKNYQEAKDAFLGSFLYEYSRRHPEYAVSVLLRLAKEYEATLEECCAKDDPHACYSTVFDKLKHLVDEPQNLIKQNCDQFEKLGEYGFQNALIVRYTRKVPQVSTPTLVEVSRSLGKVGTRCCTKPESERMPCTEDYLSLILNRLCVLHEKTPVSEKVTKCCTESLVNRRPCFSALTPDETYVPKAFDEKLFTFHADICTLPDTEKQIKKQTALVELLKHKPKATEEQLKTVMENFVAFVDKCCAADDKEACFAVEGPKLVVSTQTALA

[12] = target: T5, BSA; experiment: as above; remark: listed apart in the source
[13] = target: T1, SARS-CoV spike RBD (R306-F527), …; experiment: lateral flow NC50, RBD-AuNP vs immobilised ACE2
[14] = target: T5, BSA; experiment: dipstick, adsorbed protein spots, Ab 10 µg/mL, GAM-AuNP; remark: listed apart in the source
[15] = target: T1, SARS-CoV spike RBD (R306-F527), …; experiment: antigen-down ELISA, coated SARS-CoV-1 S1 RBD titrated, Ab 1 µg/mL; remark: listed apart in the source
[16] = target: T2, recombinant monomeric SARS-CoV-1 S1 …; experiment: antigen-down ELISA, coated SARS-CoV-1 S1 titrated, Ab 1 µg/mL; remark: listed apart in the source

Row | Binder | percent blocking [1] | percent blocking [2] | percent blocking [3] | percent blocking [4] | percent blocking [5] | percent blocking [6] | percent blocking [7] | binding result [8] | binding result [9] | percent blocking [10] | binding result [11] | binding result [12] | IC50 [13] | binding result [14] | binding result [15] | binding result [16]
1 | B1 | 0% | 0% | 94% | 94% | 96.6% | 0% | 0% | no binding (tested: 400 ng coated (axis)) | no binding (tested: 400 ng coated (axis)) | 96.6% | no binding (tested: 10 µg/mL) | – | – | – | – | –
2 | B2 | 98.8% | 92.4% | 93.4% | 93.4% | 96.5% | 98.8% | 92.4% | – | – | 96.5% | – | no binding (tested: 10 µg/mL) | 0.84 µg/mL | – | – | –
3 | B3 | 0% | 0% | 93.2% | 93.2% | 93% | 0% | 0% | – | – | 93% | – | – | – | no binding (tested: 10 µg/mL) | no binding (tested: 400 ng coated (axis)) | no binding (tested: 400 ng coated (axis))
